According to publication PMC8355310, “Using cryo-EM to understand antimycobacterial resistance in the catalase-peroxidase (KatG) from Mycobacterium tuberculosis” (Structure(London, England:1993), 2021):

Molecular target: the molecule itself
Experiment: cryo-EM structure

| Protein | binding result |
| --- | --- |
| wild-type catalase-peroxidase KatG from Mycobacterium tuberculosis (enzyme, covalent linkage between Trp107, Tyr229 and Met255 (MYW catalytic triad); b-type heme bound in both protomers, also called WT KatG; KatG^INH (with INH added); not shown: His-tag, N-terminal, cleaved) MPEQHPPITETTTGAASNGCPVVGHMKYPVEGGGNQDWWPNRLNLKVLHQNPAVADPMGAAFDYAAEVATIDVDALTRDIEEVMTTSQPWWPADYGHYGPLFIRMAWHAAGTYRIHDGRGGAGGGMQRFAPLNSWPDNASLDKARRLLWPVKKKYGKKLSWADLIVFAGNCALESMGFKTFGFGFGRVDQWEPDEVYWGKEATWLGDERYSGKRDLENPLAAVQMGLIYVNPEGPNGNPDPMAAAVDIRETFRRMAMNDVETAALIVGGHTFGKTHGAGPADLVGPEPEAAPLEQMGLGWKSSYGTGTGKDAITSGIEVVWTNTPTKWDNSFLEILYGYEWELTKSPAGAWQYTAKDGAGAGTIPDPFGGPGRSPTMLATDLSLRVDPIYERITRRWLEHPEELADEFAKAWYKLIHRDMGPVARYLGPLVPKQTLLWQDPVPAVSHDLVGEAEIASLKSQIRASGLTVSQLVSTAWAAASSFRGSDKRGGANGGRIRLQPQVGWEVNDPDGDLRKVIRTLEEIQESFNSAAPGNIKVSFADLVVLGGCAAIEKAAKAAGHNITVPFTPGRTDASQEQTDVESFAVLEPKADGFRNYLGKGNPLPAEYMLLDKANLLTLSAPEMTVLVGGLRVLGANYKRLPLGVFTEASESLTNDFFVNLLDMGITWEPSPADDGTYQGKDGSGKVKWTGSRVDLVFGSNSELRALVEVYGADDAQPKFVQDFVAAWDKVMNLDRFDVR | binds |
| KatG W107R variant from Mycobacterium tuberculosis (enzyme, also called W107R KatG; not shown: His-tag, N-terminal, cleaved) MPEQHPPITETTTGAASNGCPVVGHMKYPVEGGGNQDWWPNRLNLKVLHQNPAVADPMGAAFDYAAEVATIDVDALTRDIEEVMTTSQPWWPADYGHYGPLFIRMARHAAGTYRIHDGRGGAGGGMQRFAPLNSWPDNASLDKARRLLWPVKKKYGKKLSWADLIVFAGNCALESMGFKTFGFGFGRVDQWEPDEVYWGKEATWLGDERYSGKRDLENPLAAVQMGLIYVNPEGPNGNPDPMAAAVDIRETFRRMAMNDVETAALIVGGHTFGKTHGAGPADLVGPEPEAAPLEQMGLGWKSSYGTGTGKDAITSGIEVVWTNTPTKWDNSFLEILYGYEWELTKSPAGAWQYTAKDGAGAGTIPDPFGGPGRSPTMLATDLSLRVDPIYERITRRWLEHPEELADEFAKAWYKLIHRDMGPVARYLGPLVPKQTLLWQDPVPAVSHDLVGEAEIASLKSQIRASGLTVSQLVSTAWAAASSFRGSDKRGGANGGRIRLQPQVGWEVNDPDGDLRKVIRTLEEIQESFNSAAPGNIKVSFADLVVLGGCAAIEKAAKAAGHNITVPFTPGRTDASQEQTDVESFAVLEPKADGFRNYLGKGNPLPAEYMLLDKANLLTLSAPEMTVLVGGLRVLGANYKRLPLGVFTEASESLTNDFFVNLLDMGITWEPSPADDGTYQGKDGSGKVKWTGSRVDLVFGSNSELRALVEVYGADDAQPKFVQDFVAAWDKVMNLDRFDVR | binds |
| KatG T275P variant from Mycobacterium tuberculosis (enzyme, Homodimer (C2 symmetry imposed); no ordered heme modelled in either protomer; also called T275P KatG; not shown: His-tag, N-terminal, cleaved) MPEQHPPITETTTGAASNGCPVVGHMKYPVEGGGNQDWWPNRLNLKVLHQNPAVADPMGAAFDYAAEVATIDVDALTRDIEEVMTTSQPWWPADYGHYGPLFIRMAWHAAGTYRIHDGRGGAGGGMQRFAPLNSWPDNASLDKARRLLWPVKKKYGKKLSWADLIVFAGNCALESMGFKTFGFGFGRVDQWEPDEVYWGKEATWLGDERYSGKRDLENPLAAVQMGLIYVNPEGPNGNPDPMAAAVDIRETFRRMAMNDVETAALIVGGHTFGKPHGAGPADLVGPEPEAAPLEQMGLGWKSSYGTGTGKDAITSGIEVVWTNTPTKWDNSFLEILYGYEWELTKSPAGAWQYTAKDGAGAGTIPDPFGGPGRSPTMLATDLSLRVDPIYERITRRWLEHPEELADEFAKAWYKLIHRDMGPVARYLGPLVPKQTLLWQDPVPAVSHDLVGEAEIASLKSQIRASGLTVSQLVSTAWAAASSFRGSDKRGGANGGRIRLQPQVGWEVNDPDGDLRKVIRTLEEIQESFNSAAPGNIKVSFADLVVLGGCAAIEKAAKAAGHNITVPFTPGRTDASQEQTDVESFAVLEPKADGFRNYLGKGNPLPAEYMLLDKANLLTLSAPEMTVLVGGLRVLGANYKRLPLGVFTEASESLTNDFFVNLLDMGITWEPSPADDGTYQGKDGSGKVKWTGSRVDLVFGSNSELRALVEVYGADDAQPKFVQDFVAAWDKVMNLDRFDVR | binds |
